Source: the supplement of paper PMC10724198
± gives the standard deviation of the averaged measurements.

Test system: Saccharomyces cerevisiae
Assay: protein stability index of tFT-peptide fusion (C-terminal peptide) (PSI (0-1 scale)); higher = more stable (slower turnover)
Details: genetic background: wild type; temperature: 30 C
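Note: PSI is a weighted mean of sequencing reads over stability bins, variants kept only with over 10 reads, mCherry proximal and sfGFP distal, peptide attached via GGGS linker.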

Sequence	protein stability index
SPCTPSRLQPSS	0.65 ± 0.027
SPDHATYHNPAR	0.76 ± 0.074
SPFPAPCVFPSR	0.761 ± 0.1
SPGARRRGGAGR	0.659 ± 0.047
SPIHSLNYASSC	0.7217 ± 0.0015
SPLAPLPPPPLT	0.884 ± 0.1
SPLDEYIDSVPA	0.726 ± 0.017
SPLLLLPAPPPP	0.673 ± 0.014
SPLLPPRSPPLP	0.752 ± 0.032
SPLLVLTPLFPP	0.651 ± 0.074
SPLPHPSPPPSP	0.662 ± 0.016
SPLPPPRSSSPP	0.76 ± 0.14
SPLPPPSHALLP	0.712 ± 0.089
SPLPRSLPPLPP	0.654 ± 0.019
SPLSLPPPHPPP	0.654 ± 0.0069
SPNAPMPPRPRH	0.594 ± 0.033
SPPICLPLFRVR	0.65 ± 0.017
SPPLCAPPHPPA	0.679 ± 0.04
SPPLLHLSNSRH	0.654 ± 0.059
SPPLNSFPPTPP	0.62 ± 0.068
SPPLPPLPLLQL	0.696 ± 0.021
SPPLRSRSGSFL	0.699 ± 0.062
SPPLTSPPPAPP	0.7 ± 0.017
SPPPALPPSSPS	0.657 ± 0.025
SPPPAPPRSGPL	0.651 ± 0.051
SPPPGPAPPMSP	0.731 ± 0.03

Sequence	protein stability index
SPPPHPPAAPDS	0.6626 ± 0.0058
SPPPLPPSPLSS	0.701 ± 0.046
SPPPLPPVRPPV	0.722 ± 0.033
SPPPMSPLLRPA	0.653 ± 0.033
SPPPPLELIPSP	0.534 ± 0.025
SPPPPSRLPPPP	0.748 ± 0.096
SPPRPPPPSPPF	0.768 ± 0.015
SPPRPPPVPPPP	0.617 ± 0.054
SPPRSSRTHAPP	0.7108 ± 0.006
SPPSLRLPPPPA	0.772 ± 0.021
SPPSLYRRVRPS	0.63 ± 0.084
SPPSRASFPPPS	0.682 ± 0.022
SPRLPPPPPLPP	0.651 ± 0.11
SPRLPPSTHSPP	0.677 ± 0.15
SPRLSSCPPAGF	0.749 ± 0.017
SPRPLFPPHRPT	0.651 ± 0.044
SPRPPLLLPVTV	0.53 ± 0.26
SPRRFVVVSGQG	0.643 ± 0.012
SPRRSPLLLLPL	0.723 ± 0.064
SPRSATAPPPLP	0.71 ± 0.028
SPSFSLLFPFLL	0.657 ± 0.037
SPSPLSLRLPPP	0.632 ± 0.028
SPSPPLPSRLIL	0.673 ± 0.026
SPSRPRPPPHAP	0.7624 ± 0.00086
SPSSFLLSPPIP	0.764 ± 0.071
SPSTPPPPSPPV	0.647 ± 0.017

Sequence	protein stability index
SPTALPPPPVPP	0.662 ± 0.041
SPTLSPPPPLAL	0.667 ± 0.031
SPTRMSAFVRLD	0.739 ± 0.071
SPTSPAPPPNAS	0.67 ± 0.0092
SPWERTEMTFPR	0.822 ± 0.18
SPYVGVALGGVW	0.704 ± 0.012
SQVRYIANRKDG	0.635 ± 0.091
SREEWQSSKLRD	0.784 ± 0.089
SREYKRRTPSSK	0.718 ± 0.03
SRFEPLSCEQCS	0.66 ± 0.05
SRFFFSPRLCVP	0.604 ± 0.033
SRFKTVDCWKVW	0.697 ± 0.097
SRFLTPLPLAMF	0.592 ± 0.018
SRFQFCCCLFFF	0.578 ± 0.0074
SRGAFGPCEFFL	0.712 ± 0.0076
SRGGGRSEGGEG	0.695 ± 0.033
SRGGSGKDTGRT	0.657 ± 0.04
SRGLVVYMDALR	0.692 ± 0.028
SRGMRNPLSADR	0.645 ± 0.098
SRGRTRLVAPIV	0.66 ± 0.14
SRHIFAPFGLFG	0.726 ± 0.056
SRHVAGVGGGEV	0.652 ± 0.019
SRKIAPNGTATL	0.706 ± 0.012
SRKTDTRLTMIN	0.692 ± 0.032
SRLMGLGLLCVG	0.5272 ± 0.0013
SRPPILAHPTPS	0.707 ± 0.049

Sequence	protein stability index
SRPPRSPPLPPV	0.686 ± 0.046
SRPPSPPLCHPA	0.736 ± 0.054
SRPRPPHTLLRP	0.688 ± 0.065
SRPRTTRKAASS	0.674 ± 0.012
SRRDRGHWSVRS	0.6198 ± 0.0039
SRRETKTRLAPN	0.656 ± 0.14
SRRGIRSSSAAR	0.714 ± 0.065
SRRRIENNKTEN	0.695 ± 0.015
SRRVVDVGVIRV	0.635 ± 0.02
SRSLHGTEEYRE	0.644 ± 0.099
SRSPPRSGVPPL	0.716 ± 0.032
SRTDGLIYTALI	0.676 ± 0.021
SRTVSLDYHFMS	0.7319 ± 0.00097
SRTYAHSPPLPA	0.699 ± 0.027
SRVVCVGGRLFG	0.702 ± 0.045
SRYRSTSESMKV	0.667 ± 0.038
SRYSAVSVSRWH	0.696 ± 0.041
SSALVLSGPPHS	0.782 ± 0.1
SSAPCLRIFVTR	0.737 ± 0.062
SSCRKFLFAIRR	0.685 ± 0.02
SSGASRWSRSKF	0.762 ± 0.074
SSGVIIGRIAVK	0.603 ± 0.033
SSIEAGFSSIVI	0.685 ± 0.04
